T1: human MASP-1 (human, UniProt P48740 20-699)
T1 sequence: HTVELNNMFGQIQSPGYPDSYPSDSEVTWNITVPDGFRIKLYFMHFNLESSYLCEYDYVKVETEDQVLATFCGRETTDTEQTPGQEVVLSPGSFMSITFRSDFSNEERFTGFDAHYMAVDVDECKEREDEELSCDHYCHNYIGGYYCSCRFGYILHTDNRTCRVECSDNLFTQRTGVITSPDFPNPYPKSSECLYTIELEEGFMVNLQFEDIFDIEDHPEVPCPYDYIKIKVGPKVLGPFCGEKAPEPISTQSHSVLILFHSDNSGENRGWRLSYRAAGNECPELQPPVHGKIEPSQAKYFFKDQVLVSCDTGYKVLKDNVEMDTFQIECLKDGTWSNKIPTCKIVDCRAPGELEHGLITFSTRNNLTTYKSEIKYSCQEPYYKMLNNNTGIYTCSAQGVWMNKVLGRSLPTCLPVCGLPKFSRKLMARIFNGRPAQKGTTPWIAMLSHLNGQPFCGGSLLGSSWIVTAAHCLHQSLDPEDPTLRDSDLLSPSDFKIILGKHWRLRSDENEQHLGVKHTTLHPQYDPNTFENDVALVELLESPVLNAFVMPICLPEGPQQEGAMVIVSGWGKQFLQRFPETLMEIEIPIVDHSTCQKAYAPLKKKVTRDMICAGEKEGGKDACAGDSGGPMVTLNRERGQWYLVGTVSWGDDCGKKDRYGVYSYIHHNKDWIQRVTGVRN

T2: Human MASP-1 (CCP1-CCP2-SP S646A) (human, UniProt P48740 298-699, labelled with NHS-PEG4-Biotin (sites not given))
T2 construct: biotinylated for the ELISAs; also called N-terminally Flag-tagged human MASP-1 (CCP1-CCP2-SP S646A); not shown: N-terminal Flag-tag
T2 sequence: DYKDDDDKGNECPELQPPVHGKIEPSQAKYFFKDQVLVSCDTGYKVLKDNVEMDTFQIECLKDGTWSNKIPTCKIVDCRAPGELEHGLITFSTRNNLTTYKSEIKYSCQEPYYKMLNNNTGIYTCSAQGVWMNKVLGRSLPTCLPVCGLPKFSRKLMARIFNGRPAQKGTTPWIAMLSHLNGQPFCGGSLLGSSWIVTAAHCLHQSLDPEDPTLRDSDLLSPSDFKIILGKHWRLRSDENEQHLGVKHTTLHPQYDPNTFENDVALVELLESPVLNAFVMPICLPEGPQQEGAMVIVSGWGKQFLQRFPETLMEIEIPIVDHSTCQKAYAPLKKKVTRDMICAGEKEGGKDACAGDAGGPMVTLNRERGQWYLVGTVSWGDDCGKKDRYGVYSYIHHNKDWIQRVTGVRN

T3: Human MASP-3 (CCP1-CCP2-SP S664A) (human, labelled with NHS-PEG4-Biotin (sites not given))
T3 construct: Biotinylated for the cross-reactivity ELISA; also called N-terminally Flag-tagged human MASP-3 (CCP1-CCP2-SP S664A); not shown: N-terminal Flag-tag
T3 chain: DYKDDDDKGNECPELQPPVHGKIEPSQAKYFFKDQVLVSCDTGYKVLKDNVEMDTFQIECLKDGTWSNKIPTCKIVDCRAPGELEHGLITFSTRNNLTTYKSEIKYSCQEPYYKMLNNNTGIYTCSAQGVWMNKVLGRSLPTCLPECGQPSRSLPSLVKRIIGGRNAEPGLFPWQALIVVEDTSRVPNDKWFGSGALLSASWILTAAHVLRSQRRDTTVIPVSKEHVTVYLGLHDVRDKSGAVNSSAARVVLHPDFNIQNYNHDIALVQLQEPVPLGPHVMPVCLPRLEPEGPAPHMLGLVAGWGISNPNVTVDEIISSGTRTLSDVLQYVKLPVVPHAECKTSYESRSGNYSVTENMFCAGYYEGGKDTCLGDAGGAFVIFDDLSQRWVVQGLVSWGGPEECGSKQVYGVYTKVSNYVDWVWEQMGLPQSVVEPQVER


Legend:
human MASP-1 = molecular target: T1, human MASP-1; test: cell-based or functional assay
[1] = molecular target: T2, Human MASP-1 (CCP1-CCP2-SP S646A); test: ELISA, antibody captured by goat anti-human IgG, 8 nM biotinylated antigen, streptavidin-HRP
Description: (§1) ELISA assay was used to check the cross-reactivity of the chimeric monoclonal antibodies generated in 3.1 against human MASP-1 and human MASP-3. Goat anti-human IgG polyclonal antibody (Thermo Scientific, H10500) was diluted to 1 micro g/ml with PBS (-) and added to 384-well MAXISorp plates (Nunc, Cat No. 164688). The plates were incubated for 1 hour at room temperature, and blocked with Blocking One (Nacalai Tesque, Cat No. 03953-95) diluted 5 times. The plates were incubated for 1 hour, washed, and anti-MASP-1 antibody was added and incubated for 1 hour. Human MASP-1 (CCP1-CCP2-SP S646A) or human MASP-3 (CCP1-CCP2-SP S664A) was labelled with NHS-PEG4-Biotin (PIERCE, Cat No. 21329). After incubation, the plates were washed and 8 nM of labeled antigen was added and incubated for 1 hour. After incubation, the plates were washed and Streptavidin-HRP conjugate (Thermo Scientific 21130) were added. After 1 hour incubation, binding of biotinylated antigen was detected by the addition of ABTS (KPL, Cat No. 50-66-06). Anti-MASP-1 monoclonal antibodies listed in Table 5 were selected as MASP-1 specific antibodies and used for further analysis.

[2] = molecular target: T3, Human MASP-3 (CCP1-CCP2-SP S664A); test: as above
Description: as §1

Row | IC50 of inhibition of human C4c deposition (C4c ELISA, normal human serum on mannan) (human MASP-1) [µg/mL] | absorbance at 405 nm after background subtraction [1] [absorbance at 405 nm] | absorbance at 405 nm after background subtraction [2] [absorbance at 405 nm] | absorbance at 405 nm after background subtraction (absorbance at 405 nm) [2] | Binder
1 | 0.14 | 1.79 | -0.068 | – | MAS0114bb (antibody, human IgG4 S228P, kappa, V domains shown, Rabbit/human chimeric antibody: rabbit variable regions recombined with F760G4 and kOMTC constant regions; also called anti-MASP-1 chimeric mAb MAS0114bb) VH: QSVEESGGRLVTPGTPLTLTCTASGFDINNYAIHWVRQAPGEGLEWIGYIYARSGVTWYASWVKGRFTISKTSTTVDLKMTSLTTEDTATYFCARVLAGGGYANTGLSLWGPGTLVTVSS VL: DIVMTQTPSSVSAAVGGTVTIKCQASQNIGYSSAWYQQKPGQRPKLMIYGASTLASGVPSRFSGSGSGTEYTLTISGVQCDDAATYYCQSNYISSGSVDGTFGGGTKVEIKR
2 | 0.47 | 1.72 | 0.055 | – | MAS0116aa (antibody, human IgG4 S228P, kappa, V domains shown, Rabbit/human chimeric antibody: rabbit variable regions recombined with F760G4 and kOMTC constant regions; also called anti-MASP-1 chimeric mAb MAS0116aa) VH: QSLEESGGRLVTPGTPLTLTCTASGFSLSSCYMSWVRQAPGEGLEWIGTIYTGSGATYYASWAKGRFTVSITSTTVDLKITSPTTEDTATYFCARAIYPGSSSSNLCAFDLWGPGTLVTVSS VL: QVLTQTPASVSAAVGGTVTINCQASQSVYDNNWLAWYQQKPGQPPKLLIYQASSLASGVPSRFKGSGSGAQFTLTISDLECDDAATYFCQGYYAGVLYSFGGGTKVEIKR
3 | 0.45 | 1.51 | -0.147 | – | MAS0141aa (antibody, human IgG4 S228P, kappa, V domains shown, Rabbit/human chimeric antibody: rabbit variable regions recombined with F760G4 and kOMTC constant regions; also called anti-MASP-1 chimeric mAb MAS0141aa) VH: QSVEESGGRLVTPGTPLTLTCTASGFSLINYYMTWVRQAPGKGLEWIGIINTDGGTYYASWAKGRFTISRTSTTVDLKMTSLTTEDTATYFCARGVFTGGWTGMRTNLWGPGTLVTVSS VL: DVVMTQTPASVEAAVGGTVTIKCQASEDIYILLAWYQQKPGQPPKLLIYAASNLESGVPSRFKGSGSGTEFTLTISDLECADAATYYCQCTYGSSSSNAFGGGTKVEIKR
4 | 3.29 | 0.898 | – | 0.388 | MAS0177hh (antibody, human IgG4 S228P, kappa, V domains shown, Rabbit/human chimeric antibody: rabbit variable regions recombined with F760G4 and kOMTC constant regions; also called anti-MASP-1 chimeric mAb MAS0177hh) VH: QSVEESGGRLVTPGTPLTLTCTASGFSLSSAYMNWVRQAPGKGLEWIGIIYASGSTWYASWAKGRFTISKTSTTVDLKITSPTTEDTATYFCARDDYGTADLWGPGTLVTVSS VL: AVVLTQTASPVSAPVGGTVTIKCQASQSIGSSLAWYQQKPGQSPKLLIYGASTLVSGVSSRFSGSRSGTEFSLTISDLECADAATYYCQNYYLSSSSADRRTFGGGTKVEIKR
5 | 0.29 | 1.98 | -0.027 | – | MAS0102dd (antibody, human IgG4 S228P, kappa, V domains shown, Rabbit/human chimeric antibody: rabbit variable regions recombined with F760G4 and kOMTC constant regions; also called anti-MASP-1 chimeric mAb MAS0102dd) VH: QSVEESGGRLVTPGTPLTLTCTVSGFSLSSYAMSWVRQAPGKGLEWIGIITNLDNTYYANWAKGRFTISKTSTTVDLKITSPTTEDTAAYLCARERIKRKYSYDDYGGWAFDPWGPGTLVTVSS VL: QVLTQTPSSVSGPVGGTVTINCQAIENIYRSLAWYQQKPGQPPKLLIYDTSDLASGVPSRFSGSGSGTEYTLTISGVQCDDAATYYCQSYYYSSVTYNAFGGGTKVEIKR
6 | 0.11 | 1.95 | 0.078 | – | MAS0154dd (antibody, human IgG4 S228P, kappa, V domains shown, Rabbit/human chimeric antibody: rabbit variable regions recombined with F760G4 and kOMTC constant regions; also called anti-MASP-1 chimeric mAb MAS0154dd) VH: QSVEESGGRLVTPGTPLTLTCTVSGFSLSNYNMGWVRQAPGEGLEYIGIISSQGDIYYATWAKGRFTISKTSTTVDLKITSPTTEDTATYFCARARHVGSAADSYFHLWGLGTLVTVSS VL: AVVLTQTASPVSAAVGGTVTINCQASEEIYRNLAWYQQKPGQRPKLLIYGASNLASGVPSRFSGSGSGTEYTLTISDLECADAATYYCQRYAWGKNSADGNTFGGGTKVEIKR

— patent publication US20210115154A1 (Chugai, published 2021)
